Data published in publication PMC314469, “Protein Interaction Networks by Proteome Peptide Scanning” (PLoS Biology, 2004).
Each block holds one binder with its values, some of them ahead of it.

Columns and labels:
Assay in all cases: SPOT array
[1] = biological target: T1, Yfr024 SH3 (LSB3_YEAST), P43603
T1 chain: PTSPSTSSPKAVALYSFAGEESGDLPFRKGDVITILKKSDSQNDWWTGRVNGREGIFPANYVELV

[2] = biological target: T2, Rvs167 SH3 (RV167_YEAST), P39743
T2 chain: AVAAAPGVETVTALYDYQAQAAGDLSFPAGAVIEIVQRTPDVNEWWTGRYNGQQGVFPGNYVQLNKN

[3] = biological target: T3, Boi1 SH3 (BOI1_YEAST), P38041
T3 chain: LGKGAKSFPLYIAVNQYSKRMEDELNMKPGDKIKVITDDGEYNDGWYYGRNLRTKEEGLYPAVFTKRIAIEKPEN

[4] = biological target: T4, Boi2 SH3 (BOI2_YEAST), P39969
T4 chain: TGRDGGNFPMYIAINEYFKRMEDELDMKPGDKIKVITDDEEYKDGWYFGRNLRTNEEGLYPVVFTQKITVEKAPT

[5] = biological target: T5, Yhr016c SH3 (YSC84_YEAST), P32793
T5 chain: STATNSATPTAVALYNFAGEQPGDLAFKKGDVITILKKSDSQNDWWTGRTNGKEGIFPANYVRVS

normalised SPOT signal, Boehringer light units (BLU); mean over the file's lines of this peptide [1]: 49.4
normalised SPOT signal, Boehringer light units (BLU); mean over the file's lines of this peptide [2]: 87
normalised SPOT signal, Boehringer light units (BLU); mean over the file's lines of this peptide [3]: 125
normalised SPOT signal, Boehringer light units (BLU); mean over the file's lines of this peptide [4]: 39
normalised SPOT signal, Boehringer light units (BLU); mean over the file's lines of this peptide [5]: 0
B1: YGR233C 862-875 (peptide)
chain: FPYPGNPLKIINYE

normalised SPOT signal, Boehringer light units (BLU); mean over the file's lines of this peptide [1]: 524
normalised SPOT signal, Boehringer light units (BLU); mean over the file's lines of this peptide [2]: 67.7
normalised SPOT signal, Boehringer light units (BLU); mean over the file's lines of this peptide [3]: 169
normalised SPOT signal, Boehringer light units (BLU); mean over the file's lines of this peptide [4]: 55.6
normalised SPOT signal, Boehringer light units (BLU); mean over the file's lines of this peptide [5]: 248
B2: YEL011W 171-184 (peptide)
chain: FWNPENPYKFVHPR

normalised SPOT signal, Boehringer light units (BLU); mean over the file's lines of this peptide [1]: 25900
normalised SPOT signal, Boehringer light units (BLU); mean over the file's lines of this peptide [2]: 11800
normalised SPOT signal, Boehringer light units (BLU); mean over the file's lines of this peptide [3]: 11000
normalised SPOT signal, Boehringer light units (BLU); mean over the file's lines of this peptide [4]: 160
normalised SPOT signal, Boehringer light units (BLU); mean over the file's lines of this peptide [5]: 23200
B3: YNL047C 421-434 (peptide)
chain: FVPPNLPMRRFKEI

normalised SPOT signal, Boehringer light units (BLU); mean over the file's lines of this peptide [1]: 2790
normalised SPOT signal, Boehringer light units (BLU); mean over the file's lines of this peptide [2]: 118
normalised SPOT signal, Boehringer light units (BLU); mean over the file's lines of this peptide [3]: 178
normalised SPOT signal, Boehringer light units (BLU); mean over the file's lines of this peptide [4]: 81.9
normalised SPOT signal, Boehringer light units (BLU); mean over the file's lines of this peptide [5]: 260
B4: YGL131C 440-453 (peptide)
chain: FPYPFKPSRVGVKY

normalised SPOT signal, Boehringer light units (BLU); mean over the file's lines of this peptide [1]: 625
normalised SPOT signal, Boehringer light units (BLU); mean over the file's lines of this peptide [2]: 70.5
normalised SPOT signal, Boehringer light units (BLU); mean over the file's lines of this peptide [3]: 255
normalised SPOT signal, Boehringer light units (BLU); mean over the file's lines of this peptide [4]: 11.4
normalised SPOT signal, Boehringer light units (BLU); mean over the file's lines of this peptide [5]: 42.4
B5: YNL286W 148-161 (peptide)
chain: FNGPEPPIKRLKKA

normalised SPOT signal, Boehringer light units (BLU); mean over the file's lines of this peptide [1]: 437
normalised SPOT signal, Boehringer light units (BLU); mean over the file's lines of this peptide [2]: 58.9
normalised SPOT signal, Boehringer light units (BLU); mean over the file's lines of this peptide [3]: 96.5
normalised SPOT signal, Boehringer light units (BLU); mean over the file's lines of this peptide [4]: 34.6
normalised SPOT signal, Boehringer light units (BLU); mean over the file's lines of this peptide [5]: 243
B6: YML005W 163-176 (peptide)
chain: FLSPGKPSKGTSLH

normalised SPOT signal, Boehringer light units (BLU); mean over the file's lines of this peptide [1]: 4240
normalised SPOT signal, Boehringer light units (BLU); mean over the file's lines of this peptide [2]: 16.4
normalised SPOT signal, Boehringer light units (BLU); mean over the file's lines of this peptide [3]: 96.3
normalised SPOT signal, Boehringer light units (BLU); mean over the file's lines of this peptide [4]: 20.4
normalised SPOT signal, Boehringer light units (BLU); mean over the file's lines of this peptide [5]: 75.7
B7: YOR034C 343-356 (peptide)
chain: FVLPSLPRKNTYKV

normalised SPOT signal, Boehringer light units (BLU); mean over the file's lines of this peptide [1]: 19500
normalised SPOT signal, Boehringer light units (BLU); mean over the file's lines of this peptide [2]: 1200
normalised SPOT signal, Boehringer light units (BLU); mean over the file's lines of this peptide [3]: 105
normalised SPOT signal, Boehringer light units (BLU); mean over the file's lines of this peptide [4]: 172
normalised SPOT signal, Boehringer light units (BLU); mean over the file's lines of this peptide [5]: 1370
B8: YGL130W 106-119 (peptide)
chain: FRFPRLPQKKKEEL

normalised SPOT signal, Boehringer light units (BLU); mean over the file's lines of this peptide [1]: 834
normalised SPOT signal, Boehringer light units (BLU); mean over the file's lines of this peptide [2]: 114
normalised SPOT signal, Boehringer light units (BLU); mean over the file's lines of this peptide [3]: 52.4
normalised SPOT signal, Boehringer light units (BLU); mean over the file's lines of this peptide [4]: 103
normalised SPOT signal, Boehringer light units (BLU); mean over the file's lines of this peptide [5]: 358
B9: YMR128W 865-878 (peptide)
chain: FPFPTPPDRVALSK

normalised SPOT signal, Boehringer light units (BLU); mean over the file's lines of this peptide [1]: 34100
normalised SPOT signal, Boehringer light units (BLU); mean over the file's lines of this peptide [2]: 10100
normalised SPOT signal, Boehringer light units (BLU); mean over the file's lines of this peptide [3]: 898
normalised SPOT signal, Boehringer light units (BLU); mean over the file's lines of this peptide [4]: 1080
normalised SPOT signal, Boehringer light units (BLU); mean over the file's lines of this peptide [5]: 9870
B10: YOR086C 892-905 (peptide)
chain: FVSPRIPSRIVKNG

normalised SPOT signal, Boehringer light units (BLU); mean over the file's lines of this peptide [1]: 45100
normalised SPOT signal, Boehringer light units (BLU); mean over the file's lines of this peptide [2]: 8580
normalised SPOT signal, Boehringer light units (BLU); mean over the file's lines of this peptide [3]: 800
normalised SPOT signal, Boehringer light units (BLU); mean over the file's lines of this peptide [4]: 308
normalised SPOT signal, Boehringer light units (BLU); mean over the file's lines of this peptide [5]: 51000
B11: YBR108W 657-670 (peptide)
chain: FQPPPKPFRRSQSS

normalised SPOT signal, Boehringer light units (BLU); mean over the file's lines of this peptide [1]: 44.7
normalised SPOT signal, Boehringer light units (BLU); mean over the file's lines of this peptide [2]: 0
normalised SPOT signal, Boehringer light units (BLU); mean over the file's lines of this peptide [3]: 94
normalised SPOT signal, Boehringer light units (BLU); mean over the file's lines of this peptide [4]: 48.3
normalised SPOT signal, Boehringer light units (BLU); mean over the file's lines of this peptide [5]: 66.7
B12: YGR065C 310-323 (peptide)
chain: FVIPGVPSKSYSLF

normalised SPOT signal, Boehringer light units (BLU); mean over the file's lines of this peptide [1]: 1350
normalised SPOT signal, Boehringer light units (BLU); mean over the file's lines of this peptide [2]: 33.2
normalised SPOT signal, Boehringer light units (BLU); mean over the file's lines of this peptide [3]: 133
normalised SPOT signal, Boehringer light units (BLU); mean over the file's lines of this peptide [4]: 41.4
normalised SPOT signal, Boehringer light units (BLU); mean over the file's lines of this peptide [5]: 116
B13: YJR054W 476-489 (peptide)
chain: FREPDLPRKGLLED

normalised SPOT signal, Boehringer light units (BLU); mean over the file's lines of this peptide [1]: 98.1
normalised SPOT signal, Boehringer light units (BLU); mean over the file's lines of this peptide [2]: 28
normalised SPOT signal, Boehringer light units (BLU); mean over the file's lines of this peptide [3]: 103
normalised SPOT signal, Boehringer light units (BLU); mean over the file's lines of this peptide [4]: 21.5
normalised SPOT signal, Boehringer light units (BLU); mean over the file's lines of this peptide [5]: 122
B14: YAL051W 375-388 (peptide)
chain: FPDPNNPSKVQIRM

normalised SPOT signal, Boehringer light units (BLU); mean over the file's lines of this peptide [1]: 0
normalised SPOT signal, Boehringer light units (BLU); mean over the file's lines of this peptide [2]: 56.8
normalised SPOT signal, Boehringer light units (BLU); mean over the file's lines of this peptide [3]: 92.6
normalised SPOT signal, Boehringer light units (BLU); mean over the file's lines of this peptide [4]: 24.4
normalised SPOT signal, Boehringer light units (BLU); mean over the file's lines of this peptide [5]: 117
B15: YLR399C 173-186 (peptide)
chain: FLQPVDPVKLDIPF

normalised SPOT signal, Boehringer light units (BLU); mean over the file's lines of this peptide [1]: 9160
normalised SPOT signal, Boehringer light units (BLU); mean over the file's lines of this peptide [2]: 86.4
normalised SPOT signal, Boehringer light units (BLU); mean over the file's lines of this peptide [3]: 346
normalised SPOT signal, Boehringer light units (BLU); mean over the file's lines of this peptide [4]: 44.8
normalised SPOT signal, Boehringer light units (BLU); mean over the file's lines of this peptide [5]: 216
B16: YDR517W 316-329 (peptide)
chain: FTAPPVPTKKKSKN

normalised SPOT signal, Boehringer light units (BLU); mean over the file's lines of this peptide [1]: 276
normalised SPOT signal, Boehringer light units (BLU); mean over the file's lines of this peptide [2]: 27.2
normalised SPOT signal, Boehringer light units (BLU); mean over the file's lines of this peptide [3]: 76.7
normalised SPOT signal, Boehringer light units (BLU); mean over the file's lines of this peptide [4]: 23.9
normalised SPOT signal, Boehringer light units (BLU); mean over the file's lines of this peptide [5]: 773
B17: YCR088W 393-406 (peptide)
chain: FSKPQEPVKAEEAE
